# Results taken from paper PMC3799435, “Dissecting the interactions of SERRATE with RNA and DICER-LIKE 1 in Arabidopsis microRNA precursor processing” (Nucleic Acids Research, 2013).
# T1: SEΔ497-547 (Arabidopsis thaliana, UniProt Q9ZVD0 1-720, del497-547)
# T1 sequence: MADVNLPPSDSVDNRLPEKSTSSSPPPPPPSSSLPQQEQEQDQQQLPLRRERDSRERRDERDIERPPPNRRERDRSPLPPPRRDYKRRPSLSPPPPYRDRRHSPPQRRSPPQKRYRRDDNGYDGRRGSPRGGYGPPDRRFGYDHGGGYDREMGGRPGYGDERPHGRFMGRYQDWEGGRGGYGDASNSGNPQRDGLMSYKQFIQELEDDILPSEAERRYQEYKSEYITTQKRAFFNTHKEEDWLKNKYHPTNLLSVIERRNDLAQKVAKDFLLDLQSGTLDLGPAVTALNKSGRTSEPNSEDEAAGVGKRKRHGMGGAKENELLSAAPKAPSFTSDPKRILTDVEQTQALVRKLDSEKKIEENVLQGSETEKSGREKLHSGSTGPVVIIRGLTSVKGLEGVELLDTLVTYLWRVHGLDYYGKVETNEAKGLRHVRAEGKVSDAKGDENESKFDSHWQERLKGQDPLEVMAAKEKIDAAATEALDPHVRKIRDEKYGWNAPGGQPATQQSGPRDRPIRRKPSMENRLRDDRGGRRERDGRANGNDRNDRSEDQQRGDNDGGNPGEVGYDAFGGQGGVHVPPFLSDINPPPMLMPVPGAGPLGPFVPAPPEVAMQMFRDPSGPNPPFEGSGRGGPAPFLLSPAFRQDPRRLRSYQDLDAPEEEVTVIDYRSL
# T2: SE1-701 (Arabidopsis thaliana, UniProt Q9ZVD0 1-701, del702-720)
# T2 sequence: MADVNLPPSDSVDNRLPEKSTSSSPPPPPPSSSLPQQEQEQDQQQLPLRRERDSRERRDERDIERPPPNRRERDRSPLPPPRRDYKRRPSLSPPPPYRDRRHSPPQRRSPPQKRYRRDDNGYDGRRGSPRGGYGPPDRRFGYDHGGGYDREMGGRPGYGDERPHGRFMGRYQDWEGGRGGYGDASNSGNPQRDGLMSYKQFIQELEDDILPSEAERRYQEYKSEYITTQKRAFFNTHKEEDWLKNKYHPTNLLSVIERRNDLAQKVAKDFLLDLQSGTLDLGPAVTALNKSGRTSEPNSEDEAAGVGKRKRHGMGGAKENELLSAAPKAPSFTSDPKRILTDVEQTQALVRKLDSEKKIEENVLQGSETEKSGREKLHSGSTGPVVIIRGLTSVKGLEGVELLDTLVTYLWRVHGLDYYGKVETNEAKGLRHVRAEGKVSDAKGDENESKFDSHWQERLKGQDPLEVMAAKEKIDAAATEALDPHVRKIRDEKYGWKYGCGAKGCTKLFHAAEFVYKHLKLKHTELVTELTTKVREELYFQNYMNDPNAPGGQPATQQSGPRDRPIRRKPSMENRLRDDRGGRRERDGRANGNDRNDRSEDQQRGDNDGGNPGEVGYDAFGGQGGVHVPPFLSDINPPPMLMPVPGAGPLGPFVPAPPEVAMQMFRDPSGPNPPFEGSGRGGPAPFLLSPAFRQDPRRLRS
# T3: SE143-720 (Arabidopsis thaliana, UniProt Q9ZVD0 143-720, del1-142)
# T3 sequence: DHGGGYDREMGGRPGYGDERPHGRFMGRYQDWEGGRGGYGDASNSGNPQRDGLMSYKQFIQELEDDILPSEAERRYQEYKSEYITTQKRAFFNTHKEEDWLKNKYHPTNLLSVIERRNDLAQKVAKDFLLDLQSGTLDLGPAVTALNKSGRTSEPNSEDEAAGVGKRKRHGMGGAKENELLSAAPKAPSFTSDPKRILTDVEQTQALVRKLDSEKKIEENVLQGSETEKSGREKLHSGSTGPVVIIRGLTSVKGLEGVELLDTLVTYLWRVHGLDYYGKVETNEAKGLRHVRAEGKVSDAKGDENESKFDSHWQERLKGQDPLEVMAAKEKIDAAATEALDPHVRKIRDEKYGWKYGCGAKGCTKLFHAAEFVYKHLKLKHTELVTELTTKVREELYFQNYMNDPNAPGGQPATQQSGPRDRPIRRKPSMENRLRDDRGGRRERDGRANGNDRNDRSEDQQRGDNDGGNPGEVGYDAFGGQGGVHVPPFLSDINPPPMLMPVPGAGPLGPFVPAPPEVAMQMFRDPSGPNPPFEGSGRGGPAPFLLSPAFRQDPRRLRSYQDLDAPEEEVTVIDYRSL
# B1: forked-RNA (dsRNA)
# RNA 1: CAACCCAAGAUAGAUCAUGCAGGCAGCUUCAUCAGAUGCCGCUCCCUCUUUUUUUCUCUA
# RNA 2: GCUCCCUCUUUUUUUCUCUAGGCAUCUGAUGAAGCUGCCUGCAUGAUCUAUCUUGGGUUG
# Assays:
# SEΔ497-547 = target: T1, SEΔ497-547; assay: SPR; 50 mM NaCl, 20 nM; as wild-type SE; SPR (Biacore T100): 20 mM Tris-HCl pH 7.0, 50 or 150 mM NaCl, 2 mM β-ME (0.005% P20 for SE variants); proteins 42-43 nM (Fig 2E), SE 20 nM (Fig 4), 16 nM DCL1 for complex; temperature not stated; settings: protein: recombinant; tags: N-terminal His6; vector also has inserted myc and Strep-tag II; label: 5'-biotin on strand 1; fork: 40 bp duplex; 20-nt 3' tail of strand 1 and 20-nt 5' tail of strand 2 unpaired; other end blunt
# SE1-701 = target: T2, SE1-701; assay: as above; settings: protein: recombinant; tags: N-terminal His6; vector also has inserted myc and Strep-tag II; label: 5'-biotin on strand 1; fork: 40 bp duplex; 20-nt 3' tail of strand 1 and 20-nt 5' tail of strand 2 unpaired; other end blunt
# DCL1;SE (His-tagged) = DCL1;SE (His-tagged) (Arabidopsis thaliana;Arabidopsis …, UniProt Q9SP32;Q9ZVD0 1-1909;1-720, |); assay: SPR; SE injected on preformed DCL1/RNA complex, 50 mM NaCl; SE:DCL1 2.4:1; SPR (Biacore T100): 20 mM Tris-HCl pH 7.0, 50 or 150 mM NaCl, 2 mM β-ME (0.005% P20 for SE variants); proteins 42-43 nM (Fig 2E), SE 20 nM (Fig 4), 16 nM DCL1 for complex; temperature not stated; settings: protein: recombinant;recombinant; tags: none (His6-StrepII-SUMOstar removed);N-terminal His6; vector also has inserted myc and Strep-tag II; label: 5'-biotin on strand 1; fork: 40 bp duplex; 20-nt 3' tail of strand 1 and 20-nt 5' tail of strand 2 unpaired; other end blunt
# SE143-720 = target: T3, SE143-720; assay: SPR; 50 mM NaCl, 20 nM protein; SPR (Biacore T100): 20 mM Tris-HCl pH 7.0, 50 or 150 mM NaCl, 2 mM β-ME (0.005% P20 for SE variants); proteins 42-43 nM (Fig 2E), SE 20 nM (Fig 4), 16 nM DCL1 for complex; temperature not stated; settings: protein: recombinant; tags: N-terminal His6; vector also has inserted myc and Strep-tag II; label: 5'-biotin on strand 1; fork: 40 bp duplex; 20-nt 3' tail of strand 1 and 20-nt 5' tail of strand 2 unpaired; other end blunt
# DCL1;SE (His-tagged), sequence (Q9SP32 whole entry, one chain of several): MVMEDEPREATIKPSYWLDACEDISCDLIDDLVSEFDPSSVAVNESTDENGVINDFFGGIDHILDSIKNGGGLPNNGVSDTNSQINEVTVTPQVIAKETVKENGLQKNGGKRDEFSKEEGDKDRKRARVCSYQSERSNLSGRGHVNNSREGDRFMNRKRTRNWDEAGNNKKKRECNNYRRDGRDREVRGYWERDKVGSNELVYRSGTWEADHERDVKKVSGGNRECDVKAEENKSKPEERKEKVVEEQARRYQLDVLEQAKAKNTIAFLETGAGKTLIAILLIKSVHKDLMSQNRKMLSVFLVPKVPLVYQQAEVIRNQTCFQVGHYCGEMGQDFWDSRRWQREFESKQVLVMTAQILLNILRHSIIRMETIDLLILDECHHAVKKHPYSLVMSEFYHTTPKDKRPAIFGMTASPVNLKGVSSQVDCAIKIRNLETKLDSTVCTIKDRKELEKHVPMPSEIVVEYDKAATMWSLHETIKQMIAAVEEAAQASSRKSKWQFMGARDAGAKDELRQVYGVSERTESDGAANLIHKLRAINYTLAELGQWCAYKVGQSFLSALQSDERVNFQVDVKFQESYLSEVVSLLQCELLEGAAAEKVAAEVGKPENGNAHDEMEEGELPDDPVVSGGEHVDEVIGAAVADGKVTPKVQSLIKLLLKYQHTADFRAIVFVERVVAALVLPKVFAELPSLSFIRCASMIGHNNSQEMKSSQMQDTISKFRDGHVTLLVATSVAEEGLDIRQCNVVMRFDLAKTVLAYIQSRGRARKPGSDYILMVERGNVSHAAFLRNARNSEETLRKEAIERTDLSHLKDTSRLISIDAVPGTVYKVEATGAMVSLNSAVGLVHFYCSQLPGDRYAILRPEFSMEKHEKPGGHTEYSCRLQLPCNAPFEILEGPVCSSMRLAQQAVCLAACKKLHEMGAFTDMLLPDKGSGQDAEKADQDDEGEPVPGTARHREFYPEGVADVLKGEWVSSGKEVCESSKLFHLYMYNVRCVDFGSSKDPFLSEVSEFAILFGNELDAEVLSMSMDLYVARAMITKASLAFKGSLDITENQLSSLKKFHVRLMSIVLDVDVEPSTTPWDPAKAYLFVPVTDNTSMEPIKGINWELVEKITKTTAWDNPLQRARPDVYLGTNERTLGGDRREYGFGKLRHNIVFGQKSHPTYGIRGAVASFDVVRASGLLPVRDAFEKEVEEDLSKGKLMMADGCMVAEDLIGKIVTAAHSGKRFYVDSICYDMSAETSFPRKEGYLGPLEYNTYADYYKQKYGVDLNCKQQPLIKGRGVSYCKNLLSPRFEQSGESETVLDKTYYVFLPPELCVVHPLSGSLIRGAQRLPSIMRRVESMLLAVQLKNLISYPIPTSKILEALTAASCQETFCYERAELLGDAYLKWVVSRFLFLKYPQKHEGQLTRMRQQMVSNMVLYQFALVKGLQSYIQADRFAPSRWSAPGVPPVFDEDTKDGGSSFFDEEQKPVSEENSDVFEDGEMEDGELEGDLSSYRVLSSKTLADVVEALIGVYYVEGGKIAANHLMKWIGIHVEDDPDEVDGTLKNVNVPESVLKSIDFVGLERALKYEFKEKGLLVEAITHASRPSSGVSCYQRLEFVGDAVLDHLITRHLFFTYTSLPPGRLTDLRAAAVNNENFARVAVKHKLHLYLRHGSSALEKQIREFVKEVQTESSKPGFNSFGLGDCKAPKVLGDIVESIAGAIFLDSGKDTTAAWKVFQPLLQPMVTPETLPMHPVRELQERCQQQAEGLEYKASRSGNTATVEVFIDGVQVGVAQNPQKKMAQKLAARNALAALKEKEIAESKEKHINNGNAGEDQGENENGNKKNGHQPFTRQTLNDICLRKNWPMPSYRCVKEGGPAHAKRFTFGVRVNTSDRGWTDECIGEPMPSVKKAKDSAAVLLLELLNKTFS
binder,measurement,setting,value
B1,binding result,SEΔ497-547,binds
same,binding result,SE1-701,binds
same,binding result,DCL1;SE (His-tagged),binds
same,binding signal,SE143-720,6 fold reduction vs wild-type SE
